Target: the molecule itself
Test: AUC; sedimentation velocity, 60000 rpm, 20°C, buffer F (50 mM Na2HPO4-NaH2PO4/pH 7.5), protein at 0.6 and 1.0 mg/mL, absorption at 238 nm

B1: Mth10b from Methanobacterium thermoautotrophicum ΔH (natural protein, UniProt O27527 2-91, looked up)
chain: SEENVVYIGNKPVMNYVLAVVTQMNGGTSEVILKARGIAISRAVDVAEIVRNRFIPDIQIENIDICTEEIIGNEGTATNVSAIEIQLRKD
notes: Mth10b, Sac10b family protein of Methanobacterium thermoautotrophicum ΔH, gene MTH1483; whole gene cloned with primers from the start codon to the stop codon; No tag (pET11a, NdeI/BamHI); also called MTH1483; source: Escherichia coli BL21 (DE3), pET11a, purified (Q Sepharose Fast Flow, Phenyl Sepharose High Performance, Resource-S)
  stoichiometry N: 2
